Test results taken from paper PMC3438196.

molecular target: Gag MAPPIT prey (pMG2-Gag); assay: MAPPIT; details: stimulation with Epo; parent: est. 38; read off a plot

Substance | response (fold induction)
Apobec3G MAPPIT bait (pCEL-Apobec3G) (from UniProt Q9HC16) YFW125-127DY | 2.2

molecular target: Gagpol MAPPIT prey (pMG2-Gagpol); assay: MAPPIT; details: not given

Substance | percent of parent
Apobec3G-GFP MAPPIT bait (pCEL-Apobec3G-GFP) (from UniProt Q9HC16) R238C | 56 % of WT
Apobec3G-GFP MAPPIT bait (pCEL-Apobec3G-GFP) (from UniProt Q9HC16) K270E | 67 % of WT
Apobec3G-GFP MAPPIT bait (pCEL-Apobec3G-GFP) (from UniProt Q9HC16) Y222N | 6 % of WT
Apobec3G-GFP MAPPIT bait (pCEL-Apobec3G-GFP) (from UniProt Q9HC16) R78W | 6 % of WT
Apobec3G-GFP MAPPIT bait (pCEL-Apobec3G-GFP) (from UniProt Q9HC16) W269G | 33 % of WT
Apobec3G-GFP MAPPIT bait (pCEL-Apobec3G-GFP) (from UniProt Q9HC16) Q237K | 46 % of WT
Apobec3G-GFP MAPPIT bait (pCEL-Apobec3G-GFP) (from UniProt Q9HC16) H81L | 33 % of WT
Apobec3G-GFP MAPPIT bait (pCEL-Apobec3G-GFP) (from UniProt Q9HC16) R30L | 5 % of WT
Apobec3G-GFP MAPPIT bait (pCEL-Apobec3G-GFP) (from UniProt Q9HC16) K79M | 32 % of WT

molecular target: Gagpol MAPPIT prey (pMG2-Gagpol); assay: MAPPIT; details: not given; remark: another data set of the same source

Substance | percent of parent
Apobec3G-GFP MAPPIT bait (pCEL-Apobec3G-GFP) (from UniProt Q9HC16) E191V | 8 % of WT
Apobec3G-GFP MAPPIT bait (pCEL-Apobec3G-GFP) (from UniProt Q9HC16) D128G | 11 % of WT
Apobec3G-GFP MAPPIT bait (pCEL-Apobec3G-GFP) (from UniProt Q9HC16) R136S | 24 % of WT
Apobec3G-GFP MAPPIT bait (pCEL-Apobec3G-GFP) (from UniProt Q9HC16) R122C | 5 % of WT
Apobec3G-GFP MAPPIT bait (pCEL-Apobec3G-GFP) (from UniProt Q9HC16) W94R | 13 % of WT
Apobec3G-GFP MAPPIT bait (pCEL-Apobec3G-GFP) (from UniProt Q9HC16) N20D | 22 % of WT
Apobec3G-GFP MAPPIT bait (pCEL-Apobec3G-GFP) (from UniProt Q9HC16) R30L | 5 % of WT
